Patent publication US20240002500A1 (GUANGDONG FAPON BIOPHARMA, published 2024)
Values belong to the binder of their own block, whether it stands above or below them.

What was measured:
[1] = molecular target: T1, full-length human TIGIT on cells (human, UniProt Q495A1 22-244); experiment: FACS titration on PBMC of healthy people (natural TIGIT); unit taken from the x axis Log[µg/mL]; the curve still rises at the highest concentration (MFI about 11000 at log 1), no plateau, the fitted value lies outside the range shown
T1 construct: whole, on cells; The same protein is used for CHO-hTIGIT, PBMC and NK92-hTIGIT; the cells are named under assay; also called CHO-hTIGIT; hTIGIT
T1 sequence (looked up): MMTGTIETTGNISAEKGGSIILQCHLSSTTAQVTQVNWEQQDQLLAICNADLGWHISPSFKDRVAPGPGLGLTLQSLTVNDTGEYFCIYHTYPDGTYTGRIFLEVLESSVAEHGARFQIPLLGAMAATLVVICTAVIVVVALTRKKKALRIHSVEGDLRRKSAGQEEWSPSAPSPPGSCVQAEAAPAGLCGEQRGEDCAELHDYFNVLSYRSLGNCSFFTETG
Procedure: In order to verify that the prepared anti-human TIGIT antibody may effectively bind to naturally expressed TIGIT, the following experiments were specifically performed. PBMC cells in healthy people to be detected were counted, centrifuged at 300 g for 5 min, resuspended with an FCM buffer; and cell density was adjusted to 4E+06 cell/mL for later use. Samples to be detected (including a positive control antibody and a mouse monoclonal antibody) were diluted with the FCM buffer to 20 μg/mL, and then the FCM buffer was used to perform 3× serial dilutions of 12 concentration points; and the isotype control antibody was diluted with the FCM buffer to 20 μg/mL. According to an experimental design, in each well, 50 μL of the antibody and 50 μL of the cell (the volume of each cell added into a 96-well V-shaped plate being 2E+05 cell/well) were respectively added in the 96-well V-shaped plate; and incubation was performed in dark on ice for 30 min. Centrifugation (300 g/5 min) was performed; supernatant was discarded; 200 μL of the FCM buffer was added for washing once; centrifugation (300 g/5 min) was performed; and the supernatant was discarded. […] Centrifugation (300 g/5 min) was performed; supernatant was discarded; 200 μL of the FCM buffer was added for washing once; centrifugation (300 g/5 min) was performed; and the supernatant was discarded. […]

hTIGIT-hFc [2] = molecular target: T2, hTIGIT-hFc (human, UniProt Q495A1 22-141); experiment: FACS blocking: hTIGIT-hFc bound on U2-OS cells (PVR and CD112), then antibody, APC anti-human IgG Fc; first row of the table, row head not printed (fits the midpoint of the Tigit-5 curve; like table in Fig. 6A); unit from the x axis Log[µg/mL]
T2 construct: also called antigen protein hTIGIT-hFc; human TIGIT recombinant protein carrying a human Fc tag; not shown: human Fc tag
T2 sequence (looked up): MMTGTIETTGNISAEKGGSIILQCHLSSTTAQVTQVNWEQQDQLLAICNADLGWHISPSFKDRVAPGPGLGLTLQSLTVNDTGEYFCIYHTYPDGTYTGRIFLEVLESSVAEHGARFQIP
Procedure: (§1) U2-OS cells to be detected (human osteosarcoma cells, naturally and highly expressing PVR and CD112 by means of detection) were counted; centrifugated at 300 g for 5 min; resuspended with an FCM buffer; and cell density was adjusted to 4E+06 cell/mL for later use. […] According to an experimental design, in each well, 50 μL of the antigen protein and 50 μL of the cell (the volume of each cell added into a 96-well V-shaped plate being 2E+05 cell/well) were respectively added in the 96-well V-shaped plate; and incubation was performed in dark on ice for 30 min. Centrifugation (300 g/5 min) was performed; supernatant was discarded; 200 μL of the FCM buffer was added for washing once; centrifugation (300 g/5 min) was performed; and the supernatant was discarded. The antibody was added to the 96-well V-shaped plate (in 100 μL/well); and incubation was performed in dark on ice for 30 min. Centrifugation (300 g/5 min) was performed; supernatant was discarded; 200 μL of the FCM buffer was added for washing once; centrifugation (300 g/5 min) was performed; and the supernatant was discarded. Secondary antibodies (APC anti-human IgG Fc, 1:500 dilution) were added to the 96-well V-shaped plate (in 100 μL/well); and incubation was performed in dark on ice for 30 min. […]

hTIGIT-hFc [3] = molecular target: T2, hTIGIT-hFc; experiment: FACS blocking: hTIGIT-hFc bound on U2-OS cells (PVR and CD112), then antibody, APC anti-human IgG Fc
Procedure: as §1

hTIGIT-hFc [4] = molecular target: T2, hTIGIT-hFc; experiment: FACS blocking: antibody preincubated with hTIGIT-hFc, then CHO-hPVR cells; unit as printed on the axis, Log(uM); the same range is labelled nM in Fig. 4A and the method's top concentration of 40 µg/mL fits nM
Procedure: The CHO-engineered cells CHO-hPVR cells recombinantly expressing full-length human PVR were counted centrifugated at 300 g for 5 min, resuspended with an FCM buffer, the cells were added to the 96-well V-shaped plate; the volume of each cell added into a 96-well V-shaped plate was 2E+05 cell/well (being added in 50 μL/well); and incubation was performed in dark on ice for 30 min. Centrifugation (300 g/5 min) was performed; supernatant was discarded; 200 μL of the FCM buffer was added for washing once; centrifugation (300 g/5 min) was performed; and the supernatant was discarded. Secondary antibodies (PE anti-human IgG Fc, 1:500 dilution) were added to the 96-well V-shaped plate (in 100 μL/well); and incubation was performed in dark on ice for 30 min. Centrifugation (300 g/5 min) was performed; supernatant was discarded; 200 μL of the FCM buffer was added for washing once; centrifugation (300 g/5 min) was performed; and the supernatant was discarded. 100 μL of the 1×PBS was added for resuspending, and on-machine detection was performed.

- EC50 [1]: ~310 µg/mL
- IC50 (hTIGIT-hFc [2]): 0.335 µg/mL
B1: Tigit-5 mouse monoclonal antibody (antibody, V domains shown)
VH: QVQLQQPGAELVRPGASVKLSCKASGYSFTSYWMNWVKQRPGQGLEWIGMIRPSDSETRLNQMFKDKATLTVDKSSSTAYMQLSSPTSDDSAVYYCAGIHDYGHGAYWGQGTLVTVSA
VL: DIQMIQSPASLSVSVGETVTITCRASENIYSNLAWYQQKQGKSPQLLVYAASHLPDGVPSRFSGSGSGTQYSLKINSLQSEDFGSYYCQHFWGTPRTFGGGTKLEIKR
notes: Mouse monoclonal antibody from hybridoma

- IC50 (hTIGIT-hFc [3]): 2.52 nM
- IC50 (read off the curve) (hTIGIT-hFc [4]): ~1 nM
B2: 14Tigit-1-1 mouse monoclonal antibody (antibody, V domains shown)
VH: DVQLQESGPGLVKPSQSLSLTCTVTGYSITSDYAWNWIRQFPGNKLEWMGYISYSGSTRSNPSLKSRISITRDTSKNQFFLQLNSMTAEDTATYYCGGWEVRNYYAMDYWGQGTSVTVSS
VL: DIVMTQSHKFMSTSVGDRVSITCKASQHVSTAVAWYQQKPGQSPKLLIYSASYRYTGVPDRFTGSGSGTDFTFTISSVQAEDLAVYYCQQHYNTPWTFGGGTKLEIKR
notes: as for B1
